For two sequences, activity (% of clones with CpG methylation) and activity results are on record in patent publication US20090186816.

Series [1] deals with F-ZFPNARP-meth-NES (ZFPNARP fused to human DNMT3a catalytic domain residues 592-909) (synthetic construct). In words: cell_activity.
Series [2] relates to F-ZFPcont-meth-NES (ZFPcont fused to human DNMT3a catalytic domain residues 592-909) (synthetic construct). As to the kind of experiment: cell_activity. Conditions: NARP cells; scale: fold lower CpG methylation than F-ZFPNARP-meth-NES.

In turn, “GCCCGGGCC (double strand) [NARP T8993G mtDNA site]” showed an activity (% of clones with CpG methylation) in series [1] (bisulfite sequencing around site in NARP cybrid cells, CpGs within site protected) of 23. In series [2], this sequence gave an activity of 6. With “GCCCTGGCC (double strand) [wild-type mtDNA 8993 site]”, the activity in series [1] (wt cells, indistinguishable from background, scale: fold lower CpG methylation than on NARP site) was determined as 6.
